T1: human CXC Chemokine Receptor 3 (CXCR3) (human, UniProt P49682 1-368)
T1 construct: also called IP-10/Mig receptor; IP-10/MigR
T1 sequence: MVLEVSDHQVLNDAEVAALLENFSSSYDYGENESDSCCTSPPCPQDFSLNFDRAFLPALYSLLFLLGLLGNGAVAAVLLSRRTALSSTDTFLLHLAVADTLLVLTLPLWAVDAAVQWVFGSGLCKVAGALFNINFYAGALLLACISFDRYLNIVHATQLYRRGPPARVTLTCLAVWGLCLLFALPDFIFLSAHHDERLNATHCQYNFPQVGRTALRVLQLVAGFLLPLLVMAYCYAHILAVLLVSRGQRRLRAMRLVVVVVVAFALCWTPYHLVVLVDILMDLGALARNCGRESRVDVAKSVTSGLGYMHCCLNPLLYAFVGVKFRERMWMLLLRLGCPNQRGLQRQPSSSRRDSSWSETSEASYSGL

B1: I309 (ligand, human, UniProt P22362 24-96, looked up)
chain: KSMQVPFSRCCFSFAEQEIPLRAILCYRNTSSICSNEGLIFKLKRGKEACALDTVGWVQRHRKMLRHCPSKRK
B2: PF4 (platelet factor 4) (ligand, human, UniProt P02776 32-101, looked up)
chain: EAEEDGDLQCLCVKTTSQVRPRHITSLEVIKAGPHCPTAQLIATLKNGRKICLDLQAPLYKKIIKKLLES
B3: Mig (monokine induced by gamma interferon) (ligand, human, UniProt Q07325 23-125, looked up)
chain: TPVVRKGRCSCISTNQGTIHLQSLKDLKQFAPSPSCEKIEIIATLKNGVQTCLNPDSADVKELIKKWEKQVSQKKKQKNGKKHQKKKVLKVRKSQRSRQKKTT
notes: also called cold Mig
B4: NAP-2 (neutrophil-activating protein-2) (ligand, human, UniProt P02775 59-128, looked up)
chain: AELRCMCIKTTSGIHPKNIQSLEVIGKGTHCNQVEVIATLKDGRKICLDPDAPRIKKIVQKKLAGDESAD

Key:
[1] = target: T1, human CXC Chemokine Receptor 3 (CXCR3); assay: cell-based or functional assay
[2] = target: T1, human CXC Chemokine Receptor 3 (CXCR3); assay: inhibition of 0.05 nM 125I-IP-10 binding to activated T cells (CD3 blasts)
[3] = target: T1, human CXC Chemokine Receptor 3 (CXCR3); assay: inhibition of 125I-IP-10 binding to activated T cells
[4] = target: T1, human CXC Chemokine Receptor 3 (CXCR3); assay: summing-up of the radioligand binding studies; Mig itself was tested only as cold competitor of 125I-IP-10

Molecule	[Ca2+]i changes in IP-10/MigR transfectants (no response up to the concentration given) [1] [nM]	other results
ENA78 (epithelial-derived neutrophil-activating peptide 78) (from UniProt P42830 37-114) (ligand)	> 100	–
GCP-2 (granulocyte chemotactic protein-2) (from UniProt P80162 38-114) (ligand)	> 100	–
GROα (from UniProt P09341 35-107) (ligand)	> 100	–
IL-8 (interleukin 8) (from UniProt P10145 28-99) (ligand)	> 100	–
MCP-1 (monocyte chemotactic protein-1) (from UniProt P13500 24-99) (ligand)	> 100	–
MCP-2 (from UniProt P80075 24-99) (ligand)	> 100	–
MCP-3 (from UniProt P80098 24-99) (ligand)	> 100	–
MCP-4 (from UniProt Q99616 24-98) (ligand)	> 100	–
MIP-1α (macrophage inflammatory protein-1α) (from UniProt P10147 24-92) (ligand)	> 100	–
MIP-1β (from UniProt P13236 24-92) (ligand)	> 100	–
RANTES (regulated on activation, normal T cell expressed and secreted) (from UniProt P13501 24-91) (ligand)	> 100	–
eotaxin (from UniProt P51671 24-97) (ligand)	> 100	–
lymphotactin (from UniProt P47992 22-114) (ligand)	> 100	–
murine anti-CXCR3 monoclonal antibody 1C6	–	IC50, inhibition of IP-10 (12.5 nM) induced chemotaxis of activated T cells [1]: 0.8 µg/mL; IC50, inhibition of IP-10 mediated chemotaxis of activated T cells [1]: 0.856 µg/mL; Mig (2 nM) induced [Ca2+]i in activated T cells (no effect up to the concentration given) [1]: > 50 µg/mL; antibody concentration giving 100% inhibition of IP-10 induced chemotaxis of activated T cells [1]: 2 to 5 µg/mL; IC50 [2]: 0.16 µg/mL; antibody concentration giving complete inhibition of 125I-IP-10 binding [3]: 1 to 10 µg/mL
B1	> 100	–
B2	> 100	–
B3	–	Kd [4]: 0.15 to 0.6 nM
B4	> 100	–

Source: patent publication US20100061983A1 (published 2010)
